Patent US20140080161A1, “PHOSPHATASE COUPLED KINASE ASSAY” (RESEARCH AND DIAGNOSTIC SYSTEMS, INC., priority 2010, published 2014)

Assay: Specific activity of the phosphatase (free phosphate released per time per amount)
Type: biochemical
Description: Phosphatases used in embodiments of the invention have a high specific activity on ADP. The specific activity of the phosphatase used in the examples is the amount of free phosphate released from a substrate per unit time and per amount of phosphatase under a given set of conditions, and may be determined at the rising phase of an enzymatic dose curve, such as the hydrolysis curve as described above. In some embodiments, the phosphatase has a specific activity of greater than 100 pmol/min/μg under optimal conditions. The conditions may include optimal pH, salt concentrations, and the presence of any cofactor. In other embodiments, the phosphatase has a specific activity of greater than 1,000 pmol/min/μg. In still other embodiments, the phosphatase has a specific activity of greater than 20,000 pmol/min/μg. When phosphatases having lower specific activity are used, larger amounts of such phosphatases or longer reaction times may be used to achieve the same level of hydrolysis as can be achieved with a phosphatase having higher specific activity.

B1: rhCD39L2: recombinant human CD39L2, nucleotide phosphatase preferring ADP over ATP, used for coupling (protein, UniProt O75354 1-484, looked up)
Ectonucleoside triphosphate …: MKKGIRYETSRKTSYIFQQPQHGPWQTRMRKISNHGSLRVAKVAYPLGLCVGVFIYVAYIKWHRATATQAFFSITRAAPGARWGQQAHSPLGTAADGHEVFYGIMFDAGSTGTRVHVFQFTRPPRETPTLTHETFKALKPGLSAYADDVEKSAQGIRELLDVAKQDIPFDFWKATPLVLKATAGLRLLPGEKAQKLLQKVKKVFKASPFLVGDDCVSIMNGTDEGVSAWITINFLTGSLKTPGGSSVGMLDLGGGSTQIAFLPRVEGTLQASPPGYLTALRMFNRTYKLYSYSYLGLGLMSARLAILGGVEGQPAKDGKELVSPCLSPSFKGEWEHAEVTYRVSGQKAAASLHELCAARVSEVLQNRVHRTEEVKHVDFYAFSYYYDLAAGVGLIDAEKGGSLVVGDFEIAAKYVCRTLETQPQSSPFSCMDLTYVSLLLQEFGFPRSKVLKLTRKIDNVETSWALGAIFHYIDSLNRQKSPAS
  specific activity on ADP: > 20,000 pmol/min/μg
